According to publication PMC6888640, “Key Factors for a One-Pot Enzyme Cascade Synthesis of High Molecular Weight Hyaluronic Acid” (International Journal of Molecular Sciences, 2019):

Assays:
AtGlcAK = target: T1, AtGlcAK (Arabidopsis thaliana, UniProt Q93ZC9); conditions: substrate inhibition; 5 mM GlcA, 5 mM MgCl2, 100 mM HEPES pH 7.5, 25 °C
T1 construct: gene GLCAK1
T1 sequence (Q93ZC9 1-362): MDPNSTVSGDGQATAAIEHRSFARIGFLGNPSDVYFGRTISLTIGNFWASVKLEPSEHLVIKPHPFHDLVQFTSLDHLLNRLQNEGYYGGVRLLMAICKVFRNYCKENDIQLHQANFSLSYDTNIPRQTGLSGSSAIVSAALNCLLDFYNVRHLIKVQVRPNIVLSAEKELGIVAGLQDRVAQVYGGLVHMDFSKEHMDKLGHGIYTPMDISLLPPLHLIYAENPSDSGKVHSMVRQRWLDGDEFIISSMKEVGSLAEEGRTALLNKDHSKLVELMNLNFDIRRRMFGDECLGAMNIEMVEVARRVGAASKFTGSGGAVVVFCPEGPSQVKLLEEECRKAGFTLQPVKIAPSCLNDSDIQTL
Description: initial rates by multiplexed capillary electrophoresis; uncompetitive substrate-inhibition fit on AtGlcAK

[1] = substrate: O=P(O)(O)O[C@H]1O[C@H](CO)[C@@H](O)[C@H](O)[C@H]1O; assay: initial rates by multiplexed capillary electrophoresis; Michaelis-Menten fit; format: biochemical, Arabidopsis thaliana; conditions: 5 mM UTP, 15 mM MgCl2, 100 mM HEPES pH 8, 25 °C
Description: (§1) initial rates by multiplexed capillary electrophoresis; Michaelis-Menten fit on AtUSP

[2] = substrate: O=c1ccn([C@@H]2O[C@H](COP(=O)(O)OP(=O)(O)OP(=O)(O)O)[C@@H](O)[C@H]2O)c(=O)[nH]1; assay: as above; format: biochemical, Arabidopsis thaliana; conditions: 5 mM Glc-1-P, 15 mM MgCl2, 100 mM HEPES pH 8, 25 °C
Description: as §1

purified protein = substrate: Nc1ncnc2c1ncn2[C@@H]1O[C@H](COP(=O)(O)OP(=O)(O)OP(=O)(O)O)[C@@H](O)[C@H]1O; assay: purified protein; conditions: apparent, substrate-inhibition fit, 5 mM GlcA, 5 mM MgCl2, 100 mM HEPES pH 7.5, 25 °C

## Nc1ncnc2c1ncn2[C@@H]1O[C@H](COP(=O)(O)OP(=O)(O)OP(=O)(O)O)[C@@H](O)[C@H]1O [ATP]
AtGlcAK
  AtGlcAK: 2.87 mM

B1: AtUSP (Arabidopsis thaliana) (protein)
chain: ASTVDSNFFSSVPALHSNLGLLSPDQIELAKILLENGQSHLFQQWPELGVDDKEKLAFFDQIARLNSSYPGGLAAYIKTAKELLADSKVGKNPYDGFSPSVPSGENLTFGTDNFIEMEKRGVVEARNAAFVLVAGGLGERLGYNGIKVALPRETTTGTCFLQHYIESILALQEASNKIDSDGSERDIPFIIMTSDDTHSRTLDLLELNSYFGMKPTQVHLLKQEKVACLDDNDARLALDPHNKYSIQTKPHGHGDVHSLLYSSGLLHKWLEAGLKWVLFFQDTNGLLFNAIPASLGVSATKQYHVNSLAVPRKAKEAIGGISKLTHVDGRSMVINVEYNQLDPLLRASGFPDGDVNCETGFSPFPGNINQLILELGPYKDELQKTGGAIKEFVNPKYKDSTKTAFKSSTRLECMMQDYPKTLPPTARVGFTVMDIWLAYAPVKNNPEDAAKVPKGNPYHSATSGEMAIYRANSLILQKAGVKVEEPVKQVLNGQEVEVWSRITWKPKWGMIFSDIKKKVSGNCEVSQRSTMAIKGRNVFIKDLSLDGALIVDSIDDAEVKLGGLIKNNGWTMESVDYKDTSVPEEIRIRGFRFNKVEQLEKKLTQPGKFSVED
notes: full-length synthetic codon-optimized gene, pET-16b(+), N-terminal His10 tag, E. coli BL21(DE3), IMAC
[1]
  Km: 580 µM
[2]
  Km: 440 µM

B2: AtGlcAK (Arabidopsis thaliana) (protein)
chain: MDPNSTVSGDGQATAAIEHRSFARIGFLGNPSDVYFGRTISLTIGNFWASVKLEPSEHLVIKPHPFHDLVQFTSLDHLLNRLQNEGYYGGVRLLMAICKVFRNYCKENDIQLHQANFSLSYDTNIPRQTGLSGSSAIVSAALNCLLDFYNVRHLIKVQVRPNIVLSAEKELGIVAGLQDRVAQVYGGLVHMDFSKEHMDKLGHGIYTPMDISLLPPLHLIYAENPSDSGKVHSMVRQRWLDGDEFIISSMKEVGSLAEEGRTALLNKDHSKLVELMNLNFDIRRRMFGDECLGAMNIEMVEVARRVGAASKFTGSGGAVVVFCPEGPSQVKLLEEECRKAGFTLQPVKIAPSCLNDSDIQTL
Purified protein
  Km: 8560 µM
